No end group written: not given here. *: point of attachment. Biotin = O=C1N[C@H]2[C@H](CS[C@H]2CCCCC(=O)*)N1
T1: PGVVKSK(biotin) peptide (PGXVKSK(biotin), X = Val)
T1 construct: also called Val at P3
T1 peptide: PGVVKSK(Biotin)

T2: MGLVKSK(biotin) peptide (XGLVKSK(biotin), X = Met)
T2 construct: also called Nt-Met peptide
T2 peptide: MGLVKSK(Biotin)

T3: VGLVKSK(biotin) peptide (XGLVKSK(biotin), X = Val)
T3 construct: also called Nt-Val peptide
T3 peptide: VGLVKSK(Biotin)

T4: FGLVKSK(biotin) peptide (XGLVKSK(biotin), X = Phe)
T4 construct: also called Nt-Phe peptide
T4 peptide: FGLVKSK(Biotin)

T5: NH2-PGLVKSK(biotin)-COOH peptide (SMILES CC(C)C[C@H](NC(=O)CNC(=O)[C@@H]1CCCN1)C(=O)N[C@H](C(=O)N[C@@H](CCCCN)C(=O)N[C@@H](CO)C(=O)N[C@@H](CCCCNC(=O)CCCC[C@@H]1SC[C@@H]2NC(=O)N[C@@H]21)C(=O)O)C(C)C)
T5 construct: Immobilised on streptavidin biosensors in BLI; in solution in the yeast display sorts; also called Nt-Pro peptide; target peptide
T5 peptide: H-PGLVKSK(Biotin)-OH

T6: PVLVKSK(biotin) peptide (PXLVKSK(biotin), X = Val)
T6 construct: also called Val at P2
T6 peptide: PVLVKSK(Biotin)

T7: PGRVKSK(biotin) peptide (PGXVKSK(biotin), X = Arg)
T7 construct: also called Arg at P3
T7 peptide: PGRVKSK(Biotin)

T8: PSLVKSK(biotin) peptide (PXLVKSK(biotin), X = Ser)
T8 construct: also called Ser at P2
T8 peptide: PSLVKSK(Biotin)

T9: PGMVKSK(biotin) peptide (PGXVKSK(biotin), X = Met)
T9 construct: also called Met at P3
T9 peptide: PGMVKSK(Biotin)

T10: PGFVKSK(biotin) peptide (PGXVKSK(biotin), X = Phe)
T10 construct: also called Phe at P3
T10 peptide: PGFVKSK(Biotin)

T11: PGSVKSK(biotin) peptide (PGXVKSK(biotin), X = Ser)
T11 construct: also called Ser at P3
T11 peptide: PGSVKSK(Biotin)


How the values were obtained:
[1] = target: T1, PGVVKSK(biotin) peptide …; assay: BLI, biotinylated peptide on streptavidin biosensor
Procedure: (§1) The measurements were analyzed with instrument software Data Analysis HT (Version 12).
(§2) Previous works on GID4, as well as other N-degron proteins reported significant impact of the second position of the peptide (P2) on binding affinity. The impact of the P2 on the top variants were evaluated with BLI assay using PGLVKSK(biotin) and PXLVKSK(biotin) peptides, where X is Arg, Asp, Val, Phe, Ser, Met, or Pro. […] S283F variant and, especially, A252V variant retain higher level of BLI response compared to wild-type when Val or Ser is at P2. S283F variant retains 40% of signal with Ser at P2 and A252V variant retains >65% with Val and Ser. This retention of binding response with Val and Ser at P2, relative to Gly at P2, is maintained with the triple mutant the double mutants, with over 58% of signal retained for these variants when Ser is at P2. The A252V-S283F mutant and the triple mutant retained >55% of signal when Val is at P2.
(§3) Due to the depth of the binding pocket of GID4, the binding is impacted by the identity of residues in the target peptide beyond P2. […] Similar to evaluating the impact of P2, the impact of P3 was evaluated via BLI with PGLVKSK(biotin) peptide and PGXVKSK(biotin) peptides, where X is Arg, Asp, Val, Phe, Ser, Met, or Pro. […] Asp and Pro are particularly not favorable at P3, as almost no BLI signal was measured. The BLI response of variants with the rest of the peptides, however, increased.

[2] = target: T2, MGLVKSK(biotin) peptide …; assay: BLI, biotinylated peptide on streptavidin biosensor, 10 µmol/L protein
Procedure: (§4) High-throughput kinetic measurements were taken using Octet Red96e system with Octet Streptavidin (SA) Biosensors in 96-well format. The highest concentration of protein was prepared by mixing 25% of the total volume with 0.4% BSA in dialysis buffer (1×PBS) and completing subsequent dilutions with 0.1% BSA in dialysis buffer. The SA biosensors were hydrated for 10 min in the dialysis buffer with 0.1% BSA then loaded with NH₂-XXXVKSK(biotin)-COOH (where X are residues specified in the experiment and figures) by moving the sensors into wells with 10 μmol/L of the biotinylated peptide and incubating for 2 min. Unbound peptide was removed by incubating in the dialysis buffer with 0.1% BSA for 2 min in the next wells. The association of GID4 wild-type and variants were then measured by incubating the biosensors in wells with the proteins for 10 min and then dissociation measured by moving the sensors into new wells with dialysis buffer with 0.1% BSA for another 10 min. All wells contained 200 μL of specified solution. The measurements were analyzed with instrument software Data Analysis HT (Version 12).
(§5) The association and dissociation of the GID4 wild-type and the six variants to the PGLVKSK(biotin) peptide were evaluated using BLI. BLI is an optical technique that can measure interaction between protein in solution ad peptide immobilized on the biosensor tip. […] The S283F variant has an apparent faster dissociation rate compared to the other singe mutation variants. The apparent faster dissociation rate due to S283F mutation is also present in A252V-S283F mutant, when compared to the A252V-S253T mutant. […] The increase in the BLI response and shift in dissociation rate can be beneficial as an Nt-Pro recognizing protein; differences in off-rate can be used as method to distinguish different Nt-amino acids.

[3] = target: T3, VGLVKSK(biotin) peptide …; assay: as above
Procedure: as §4, §5

[4] = target: T4, FGLVKSK(biotin) peptide …; assay: as above
Procedure: as §4, §5

[5] = target: T5, NH2-PGLVKSK(biotin)-COOH peptide; assay: as above
Procedure: as §4, §5

[6] = target: T6, PVLVKSK(biotin) peptide …; assay: BLI, biotinylated peptide on streptavidin biosensor
Procedure: as §1, §2, §3

[7] = target: T7, PGRVKSK(biotin) peptide …; assay: as above
Procedure: as §1, §2, §3

[8] = target: T8, PSLVKSK(biotin) peptide …; assay: as above
Procedure: as §1, §2, §3

[9] = target: T9, PGMVKSK(biotin) peptide …; assay: as above
Procedure: as §1, §2, §3

[10] = target: T10, PGFVKSK(biotin) peptide …; assay: as above
Procedure: as §1, §2, §3

[11] = target: T11, PGSVKSK(biotin) peptide …; assay: as above
Procedure: as §1, §2, §3

% of steady-state BLI response relative to PGLVKSK(biotin) [1] [%] | binding result [2] | binding result [3] | binding result [4] | fold steady-state BLI response against wild-type GID4 [5] [fold] | % of steady-state BLI signal retained relative to PGLVKSK(biotin) [6] [%] | % of steady-state BLI response relative to PGLVKSK(biotin) [7] [%] | % of steady-state BLI signal retained relative to PGLVKSK(biotin) [8] [%] | % of steady-state BLI response relative to PGLVKSK(biotin) [9] [%] | % of steady-state BLI response relative to PGLVKSK(biotin) [10] [%] | % of binding response relative to PGLVKSK(biotin) [11] [%] | binding result [5] | % of steady-state BLI response relative to PGLVKSK(biotin) [11] [%] | binding result [6] | binding result [7] | binding result [1] | binding result [9] | binding result [10] | Binder
> 50 |  |  |  |  |  |  |  |  |  |  |  |  |  |  |  |  |  | wild-type human GID4 fragment (residues 116-300), purified with N-terminal His-tag (other, Expressed in E. coli BL21(DE3), nickel-column purified; also called wild-type GID4; native GID4; not shown: N-terminal six-histidine tag and TEV protease recognition site from the pET21(+) construct) GVATSLLYSGSKFRGHQKSKGNSYDVEVVLQHVDTGNSYLCGYLKIKGLTEEYPTLTTFFEGEIISKKHPFLTRKWDADEDVDRKHWGKFLAFYQYAKSFNSDDFDYEELKNGDYVFMRWKEQFLVPDHTIKDISGASFAGFYYICFQKSAASIEGYYYHRSSEWYQSLNLTHVPEHSAPIYEFR
> 60 | binds | binds | binds | 1.7 | > 65 | > 60 | > 65 | > 60 | > 60 | < 31 |  |  |  |  |  |  |  | GID4 A252V variant (residues 116-300), purified with N-terminal His-tag (designed binder, not shown: N-terminal six-histidine tag and TEV protease recognition site from the pET21(+) construct) GVATSLLYSGSKFRGHQKSKGNSYDVEVVLQHVDTGNSYLCGYLKIKGLTEEYPTLTTFFEGEIISKKHPFLTRKWDADEDVDRKHWGKFLAFYQYAKSFNSDDFDYEELKNGDYVFMRWKEQFLVPDHTIKDISGVSFAGFYYICFQKSAASIEGYYYHRSSEWYQSLNLTHVPEHSAPIYEFR
> 69 | binds | binds | binds |  | > 55 | > 69 | > 58 | > 69 | > 69 |  | binds | > 51 |  |  |  |  |  | GID4 A252V-S283F double mutant variant (residues 116-300), purified with N-terminal His-tag (designed binder, also called A252V-S283F mutant; not shown: N-terminal six-histidine tag and TEV protease recognition site from the pET21(+) construct) GVATSLLYSGSKFRGHQKSKGNSYDVEVVLQHVDTGNSYLCGYLKIKGLTEEYPTLTTFFEGEIISKKHPFLTRKWDADEDVDRKHWGKFLAFYQYAKSFNSDDFDYEELKNGDYVFMRWKEQFLVPDHTIKDISGVSFAGFYYICFQKSAASIEGYYYHRSSEWYQFLNLTHVPEHSAPIYEFR
 | binds | binds | binds |  |  |  | 40 |  |  | < 31 | binds |  | binds | binds | binds | binds | binds | GID4 S283F variant (residues 116-300), purified with N-terminal His-tag (designed binder, not shown: N-terminal six-histidine tag and TEV protease recognition site from the pET21(+) construct) GVATSLLYSGSKFRGHQKSKGNSYDVEVVLQHVDTGNSYLCGYLKIKGLTEEYPTLTTFFEGEIISKKHPFLTRKWDADEDVDRKHWGKFLAFYQYAKSFNSDDFDYEELKNGDYVFMRWKEQFLVPDHTIKDISGASFAGFYYICFQKSAASIEGYYYHRSSEWYQFLNLTHVPEHSAPIYEFR
 | binds | binds | binds |  |  |  |  |  |  | < 31 | binds |  |  | binds | binds | binds | binds | GID4 S253T variant (residues 116-300), purified with N-terminal His-tag (designed binder, not shown: N-terminal six-histidine tag and TEV protease recognition site from the pET21(+) construct) GVATSLLYSGSKFRGHQKSKGNSYDVEVVLQHVDTGNSYLCGYLKIKGLTEEYPTLTTFFEGEIISKKHPFLTRKWDADEDVDRKHWGKFLAFYQYAKSFNSDDFDYEELKNGDYVFMRWKEQFLVPDHTIKDISGATFAGFYYICFQKSAASIEGYYYHRSSEWYQSLNLTHVPEHSAPIYEFR
> 69 | binds | binds | binds | > 2.3 | > 55 | > 69 | > 58 | > 69 | > 69 |  |  | > 51 |  |  |  |  |  | GID4 A252V-S253T-S283F triple mutant variant (residues 116-300), purified with N-terminal His-tag (designed binder, not shown: N-terminal six-histidine tag and TEV protease recognition site from the pET21(+) construct) GVATSLLYSGSKFRGHQKSKGNSYDVEVVLQHVDTGNSYLCGYLKIKGLTEEYPTLTTFFEGEIISKKHPFLTRKWDADEDVDRKHWGKFLAFYQYAKSFNSDDFDYEELKNGDYVFMRWKEQFLVPDHTIKDISGVTFAGFYYICFQKSAASIEGYYYHRSSEWYQFLNLTHVPEHSAPIYEFR
> 69 | binds | binds | binds |  |  | > 69 | > 58 | > 69 | > 69 |  | binds | > 51 | binds |  |  |  |  | GID4 A252V-S253T double mutant variant (residues 116-300), purified with N-terminal His-tag (designed binder, also called A252V-S253T mutant; not shown: N-terminal six-histidine tag and TEV protease recognition site from the pET21(+) construct) GVATSLLYSGSKFRGHQKSKGNSYDVEVVLQHVDTGNSYLCGYLKIKGLTEEYPTLTTFFEGEIISKKHPFLTRKWDADEDVDRKHWGKFLAFYQYAKSFNSDDFDYEELKNGDYVFMRWKEQFLVPDHTIKDISGVTFAGFYYICFQKSAASIEGYYYHRSSEWYQSLNLTHVPEHSAPIYEFR

From patent US20250026797A1 (GOVERNMENT OF THE UNITED STATES OF AMERICA AS REPRESENTED …, published 2025)
